Test results: patent US20230272048A1 (UNIVERSITY OF MELBOURNE, published 2023)

Target: AD8 WT Env (gp160, from lysed pseudovirions / on pseudovirus) (HIV-1 AD8, clade B)
Experiment: cell-based or functional assay

B1: MEL-1872 (antibody)
VH: KVQLRESGPSLVKPSQTLSLTCTASGFSLSDKAVGWVRQAPGQPLEWLGTIDTTGNAVYNPGLKSRLSITKDNSKSQVSLSLSSVTTEDSATYHCSTVHQKTRRSCPSDYSFICDCEGTGSHCCRASNCPYYCNYGRDRMCTGRSNIHEWHVDAWGQGLLVTVSS
VL: QAVLTQPSSVSGSLGQRVSTTCSGSSSNVGNGYVSWYQLIPGSAPRTLIYGDTSRASGVPDRFSGSRSGNTVTLTISSLQAEDEADYFCASAEDGSSNAVFGRGTTLTV
notes: also called H 1872; BrNAb MEL-1872
  IC50 (read off the curve); axis Neutralisation (%), panel AD8: ~7 ng/mL
